According to patent US20110301073:

What was measured:
Assay in all cases: cell_activity
[1] = tested on: TALEN 101234 (HD half repeat) (synthetic (Xanthomonas TALE)); settings: paired with 101231
[2] = tested on: TALEN 101235 (HD half repeat) (synthetic (Xanthomonas TALE)); settings: paired with 101238
[3] = tested on: TALEN 101236 (HD half repeat) (synthetic (Xanthomonas TALE)); settings: paired with 101238; 2.5% with 101237
[4] = tested on: TALEN 101239 (HD half repeat) (synthetic (Xanthomonas TALE)); settings: paired with 101167; 11.2% with 101240
[5] = tested on: TALEN 101151 (synthetic (Xanthomonas TALE)); settings: paired with 101233
[6] = tested on: TALEN 101238 (HD half repeat) (synthetic (Xanthomonas TALE)); settings: paired with 101236; 8.1% with 101235
[7] = tested on: TALEN 101237 (NK half repeat) (synthetic (Xanthomonas TALE)); settings: paired with 101236
[8] = tested on: TALEN 101167 (synthetic (Xanthomonas TALE)); settings: paired with 101239; 5.3% with 101166
[9] = tested on: TALEN 101240 (HD half repeat) (synthetic (Xanthomonas TALE)); settings: paired with 101239; 10.7% with 101166
[10] = tested on: TALEN 101166 (synthetic (Xanthomonas TALE)); settings: paired with 101240; 5.3% with 101167
[11] = tested on: TALEN 101233 (NI half repeat) (synthetic (Xanthomonas TALE)); settings: paired with 101151
[12] = tested on: TALEN 101230 (HD half repeat) (synthetic (Xanthomonas TALE)); settings: paired with 101156
[13] = tested on: TALEN 101231 (NI half repeat) (synthetic (Xanthomonas TALE)); settings: paired with 101234
[14] = tested on: TALEN 101156 (synthetic (Xanthomonas TALE)); settings: paired with 101230
[15] = tested on: C1 TALEN 101380 (synthetic (Xanthomonas TALE)); settings: paired with 101381
[16] = tested on: C1 TALEN 101371 (synthetic (Xanthomonas TALE)); settings: paired with 101370; site given 3'-5', reversed here
[17] = tested on: C1 TALEN 101378 (synthetic (Xanthomonas TALE)); settings: paired with 101379
[18] = tested on: RPD1 TALEN 101393 (synthetic (Xanthomonas TALE)); settings: paired with 101389; site given 3'-5', reversed here
[19] = tested on: RPD1 TALEN 101391 (synthetic (Xanthomonas TALE)); settings: paired with 101390; site given 3'-5', reversed here
[20] = tested on: C1 TALEN 101370 (synthetic (Xanthomonas TALE)); settings: paired with 101371
[21] = tested on: RPD1 TALEN 101388 (synthetic (Xanthomonas TALE)); settings: paired with 101391; Neuro 2A
[22] = tested on: RPD1 TALEN 101389 (synthetic (Xanthomonas TALE)); settings: paired with 101393; Neuro 2A
[23] = tested on: C1 TALEN 101381 (synthetic (Xanthomonas TALE)); settings: paired with 101380; site given 3'-5', reversed here
[24] = tested on: RPD1 TALEN 101390 (synthetic (Xanthomonas TALE)); settings: paired with 101391; printed site lacks one A relative to the locus

**Q.** For “ACCGCTGTGCTCCTGGC (double strand) [101234 site]”, which activity [1] is on record?
**A.** 10 % NHEJ

**Q.** For “ACGCCGTGGAAAGGC (double strand) [101235 site]”, which activity [2] is on record?
**A.** 8.1 % NHEJ

**Q.** With “ACGCCGTGGAAAGGCC (double strand) [101236 site]” as the sequence, how does the activity [3] read?
**A.** 9.2 % NHEJ

**Q.** “ATGAGCGGCCCCGCC (double strand) [101239 site]” was tested. Which activity [4] did it give?
**A.** 13.1 % NHEJ

**Q.** For “CCGCACCCCCAGCT (double strand) [101151 site]”, which activity [5] is on record?
**A.** 13.3 % NHEJ

**Q.** Which activity [6] does the source give for “CGGGGATGATCTAC (double strand) [101238 site]” here?
**A.** 9.2 % NHEJ

**Q.** How did the activity [7] turn out when “CGGGGATGATCTACGG (double strand) [101237 site]” was run?
**A.** 2.5 % NHEJ

**Q.** For “CGTTGCCCCCGCCCT (double strand) [101167 site]”, which activity [8] is on record?
**A.** 13.1 % NHEJ

**Q.** For “GAATCGTTGCCCCCGC (double strand) [101240 site]”, which activity [9] is on record?
**A.** 11.2 % NHEJ

**Q.** Which activity [10] does the source give for “GAGCGGCCCCGCCCGT (double strand) [101166 site]” here?
**A.** 10.7 % NHEJ

**Q.** With “GCTCCTGGCCCTTGCA (double strand) [101233 site]” as the sequence, how does the activity [11] read?
**A.** 13.3 % NHEJ

**Q.** How did the activity [12] turn out when “GGCACTCCGCACCCC (double strand) [101230 site]” was run?
**A.** 4.9 % NHEJ

**Q.** Which activity [13] does the source give for “GGCACTCCGCACCCCCA (double strand) [101231 site]” here?
**A.** 10 % NHEJ

**Q.** For “TACCGCTGTGCTCCT (double strand) [101156 site]”, which activity [14] is on record?
**A.** 4.9 % NHEJ

**Q.** “TCCTACGACGAGGAGGAT (double strand) [101380 site]” was tested. Which activity (relative DLSSA units) [15] did it give?
**A.** 10.3

**Q.** For “TCGTCCACGCCCCTCTCT (double strand) [101371 site]”, which activity (relative DLSSA units) [16] is on record?
**A.** 5

**Q.** How did the activity (relative DLSSA units) [17] turn out when “TGAACTACCTCCGGCCC (double strand) [101378 site]” was run?
**A.** 7.1

**Q.** With “TGAACTAGTGGGAGTGTT (double strand) [101393 site]” as the sequence, how does the activity (relative DLSSA units) [18] read?
**A.** 9.9

**Q.** Which activity (relative DLSSA units) [19] does the source give for “TGGGAGTGTTGCAT (double strand) [101391 site]” here?
**A.** 9.7

**Q.** “TGGGGAGGAGGGCGTGCT (double strand) [101370 site]” was tested. Which activity (relative DLSSA units) [20] did it give?
**A.** 5

**Q.** For “TTATTTGAAGAAACT (double strand) [101388 site]”, which activity (relative DLSSA units) [21] is on record?
**A.** 7.6

**Q.** “TTATTTGAAGAAACTAT (double strand) [101389 site]” was tested. Which activity (relative DLSSA units) [22] did it give?
**A.** 9.9

**Q.** How did the activity (relative DLSSA units) [23] turn out when “TTGCCGAGGAGCCTGT (double strand) [101381 site]” was run?
**A.** 10.3

**Q.** How did the activity (relative DLSSA units) [24] turn out when “TTTGAAGAACTATATT (double strand) [101390 site]” was run?
**A.** 9.7
